Measured values: patent US20190062752, “Transcription Factor Trapping by RNA in Gene Regulatory Elements” (Whitehead Institute for Biomedical Research, published 2019)

Key:
YY1 (full length) [1] = molecular target: T1, YY1 (full length) (Mus musculus, UniProt Q00899 Q00899:1-414); test: EMSA; higher affinity than for RNA; 0.1 mM ZnCl2, 5 mM MgCl2; binding curve only in FIG. 7B; details: tags: N-terminal His6; label: 32P
Experimental: (§1) 5 nM of radioactively labeled 30-bp DNA probe derived from the promoter region of Arid1a gene containing a consensus YY1 binding motif ([…]; SEQ ID NO: 4) was incubated with increasing concentrations of recombinant murine YY1 protein. Right panel: EMSA of YY1-RNA complexes at different concentrations of recombinant YY1. 5 nM of radioactively labeled 30-nt RNA probe derived from the same region of the Arid1a gene was incubated with increasing concentrations of recombinant YY1 protein.
(§2) EMSAs with the recombinant murine YY1 were performed in a similar way as those with the NE. DNA-binding reactions (20 μl) contained 10 mM HEPES-KOH pH 7.5, 12 mM Tris-HCl pH 7.4, 50 mM NaCl, 50 mM KCl, 5 mM MgCl₂, 0.1 mM ZnCl₂, 0.01% NP-40, 5% glycerol, 500 ng poly(dI-dC), 0.5 mM DTT, and recombinant murine YY1. RNA-binding reactions (20 μl) contained 10 mM HEPES-KOH pH 7.5, 12 mM Tris-HCl pH 7.4, 50 mM NaCl, 50 mM KCl, 5 mM MgCl₂, 0.1 mM ZnCl₂, 0.01% NP-40, 5% glycerol, 10 U SUPERase In RNase inhibitor (Life Technologies), 0.5 mM DTT, and recombinant murine YY1.

[2] = molecular target: T2, YY1 C-terminal region (zinc fingers) (Mus musculus, UniProt Q00899 Q00899:271-414); test: EMSA; zinc-finger region binds DNA; details: label: 32P
Experimental: (§3) Sizes of N-terminal and C-terminal regions of YY1 are drawn to scale. […] 5 nM of radioactively labeled 30-bp DNA probe derived from the promoter region of Arid1a gene containing a consensus YY1 binding motif was incubated with increasing concentrations of full-length recombinant murine YY1 protein (FL), the N-terminal portion of YY1 (N-term) lacking the zinc-fingers or the C-terminal portion (C-term) containing the zinc fingers. […] The arrows indicate free probe and probe bound by YY1. […] 5 nM of radioactively labeled 30-nt RNA probe derived from the promoter region of Arid1a gene was incubated with increasing concentrations of full-length recombinant murine YY1 protein (FL), the N-terminal portion of YY1 (N-term) lacking the zinc-fingers or the C-terminal portion (C-term) containing the zinc fingers. […] The arrows indicate free probe and probe bound by YY1;
(§4) EMSAs with the recombinant murine YY1 were performed in a similar way as those with the NE. DNA-binding reactions (20 μl) contained 10 mM HEPES-KOH pH 7.5, 12 mM Tris-HCl pH 7.4, 50 mM NaCl, 50 mM KCl, 5 mM MgCl₂, 0.1 mM ZnCl₂, 0.01% NP-40, 5% glycerol, 500 ng poly(dI-dC), 0.5 mM DTT, and recombinant murine YY1. […]

YY1 (full length) [3] = molecular target: T1, YY1 (full length); test: competition; described as RNA incompatible with YY1 binding in vitro; details: tags: N-terminal His6
Experimental: A radioactively labeled 30-nt RNA probe containing sequence derived from the promoter region of Arid1a gene shown in blue above the image or the complementary sequence shown in pink was incubated with 400 nM of the recombinant murine YY1. The arrows indicate free probe and probe bound by YY1. […] Radioactively labeled 30-nt RNA probe derived from the promoter region of Arid1a gene was incubated with 400 nM of recombinant murine YY1. Sequence of the probe is shown above the image in blue. In competition EMSA, 100-fold molar excess of cold competitor RNA with the same sequence as the radiolabeled RNA (Arid1a RNA A), complementary sequence (Arid1a RNA 1), or a different sequence (Arid1a RNA B) was pre-incubated with the recombinant YY1 before the probe was added to the binding reaction. The arrows indicate free probe and probe bound by YY1. Asterisk indicates the position of double-stranded RNA formed when single-stranded cold RNA was incubated with the complementary labelled RNA probe. […] Radioactively labeled 30-nt RNA probe derived from the promoter region of Arid1a gene was incubated with 400 nM of recombinant murine YY1. Sequence of the probe and competitor RNA are shown above the image. For supershift assay, 0.5 μl of YY1 antibodies (# sc-7341) was added to the RNA probe. […]

OCT4 [4] = molecular target: T3, OCT4 (Homo sapiens, UniProt Q01860 Q01860:1-360); test: EMSA; 250 nM OCT4; details: tags: Abcam ab134876; label: 32P
Experimental: (§5) The x-axis indicates distance from the TSS in kilobases. The y-axis indicates average density of uniquely mapped reads per genomic bin. […] A radioactively labeled 40-bp DNA probe containing OCT4 consensus binding motif derived from the enhancer of Lefty1 gene was incubated with 250 nM of the recombinant human OCT4 (Abcam, # ab134876). In competition EMSA, 100-fold molar excess of cold competitor DNA containing the OCT4 motif (Lefty1 DNA comp), cold DNA competitor, in which bases adjacent the OCT4 motif were randomly substituted (mut Lefty1 DNA comp), cold DNA competitor lacking the OCT4 motif (Arid1a DNA comp), or cold RNA competitor (Arid1a RNA comp) was pre-incubated with the recombinant OCT4 before the radioactively labeled DNA probe was added to the binding reaction. The arrows indicate free probe and probe bound by OCT4.

YY1 (full length) [5] = molecular target: T1, YY1 (full length); test: EMSA; 240 nM YY1 in FIG. 9C; details: tags: N-terminal His6; label: 32P
Experimental: A radioactively labeled 30-bp DNA probe containing YY1 consensus binding motif derived from the promoter region of Arid1a gene was incubated with 80 nM of the recombinant murine YY1. For supershift assay, 0.5 μl of YY1 antibodies (# sc-7341) was added to the DNA probe pre-incubated with the recombinant protein. In competition EMSA, 100-fold molar excess of cold competitor DNA containing YY1 motif (Spec comp) or lacking YY1 motif (Nspec comp) was pre-incubated with the recombinant YY1 before the radioactively labeled DNA probe was added to the binding reaction. The arrows indicate free probe, probe bound by YY1, probe bound by YY1 fragment, and supershifted probe. […] Radioactively labeled 30-bp DNA probe containing YY1 consensus binding motif derived from the promoter region of Rpl30 gene was incubated with 240 nM of the recombinant murine YY1. In competition EMSA, 100-fold molar excess of cold competitor RNA derived from the promoter region of Arid1a gene was pre-incubated with the recombinant murine YY1 before the radioactively labeled DNA probe was added to the binding reaction. The arrows indicate free probe and probe bound by YY1;
EMSAs with the recombinant murine YY1 were performed in a similar way as those with the NE. […]

YY1 N-terminal region = YY1 N-terminal region (Mus musculus, UniProt Q00899 Q00899:1-277); test: EMSA; N-terminal region binds RNA; details: label: 32P
Experimental: as §3, §4

[6] = molecular target: T2, YY1 C-terminal region (zinc fingers); test: EMSA; zinc-finger region does not bind RNA; details: label: 32P
Experimental: as §3, §4

OCT4 [7] = molecular target: T3, OCT4; test: EMSA; legend: OCT4 does not bind RNA in vitro; details: tags: Abcam ab134876; label: 32P
Experimental: as §5

YY1 (full length) [8] = molecular target: T1, YY1 (full length); test: EMSA; weaker than DNA; 0.1 mM ZnCl2, 5 mM MgCl2; details: tags: N-terminal His6; label: 32P
Experimental: as §1, §2

YY1 (full length) [9] = molecular target: T1, YY1 (full length); test: EMSA; tethered RNA outcompetes DNA with untethered RNA; IC50 values only in figure; details: tags: N-terminal His6; label: 32P (probe 2); 30-bp DNA duplex with 30-nt RNA overhang at each 3' end

T1 sequence (Q00899 whole entry, one chain of several): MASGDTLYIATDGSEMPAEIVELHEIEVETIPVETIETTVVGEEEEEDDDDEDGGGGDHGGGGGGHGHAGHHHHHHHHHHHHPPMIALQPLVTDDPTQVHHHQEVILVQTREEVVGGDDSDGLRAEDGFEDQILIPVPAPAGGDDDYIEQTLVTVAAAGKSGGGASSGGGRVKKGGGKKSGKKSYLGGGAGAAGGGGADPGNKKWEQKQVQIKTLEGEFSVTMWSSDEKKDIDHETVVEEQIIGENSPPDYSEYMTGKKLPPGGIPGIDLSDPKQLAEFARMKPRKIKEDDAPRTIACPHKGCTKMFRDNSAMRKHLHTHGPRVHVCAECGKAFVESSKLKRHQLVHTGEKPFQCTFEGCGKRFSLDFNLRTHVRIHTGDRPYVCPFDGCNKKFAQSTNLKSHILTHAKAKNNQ
T2 sequence (Q00899 271-414, one chain of several): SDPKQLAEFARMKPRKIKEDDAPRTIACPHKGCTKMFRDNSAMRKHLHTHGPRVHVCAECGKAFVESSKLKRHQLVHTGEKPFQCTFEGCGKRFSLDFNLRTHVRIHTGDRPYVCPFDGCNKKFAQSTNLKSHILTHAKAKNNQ
T3 sequence (Q01860 whole entry, one chain of several): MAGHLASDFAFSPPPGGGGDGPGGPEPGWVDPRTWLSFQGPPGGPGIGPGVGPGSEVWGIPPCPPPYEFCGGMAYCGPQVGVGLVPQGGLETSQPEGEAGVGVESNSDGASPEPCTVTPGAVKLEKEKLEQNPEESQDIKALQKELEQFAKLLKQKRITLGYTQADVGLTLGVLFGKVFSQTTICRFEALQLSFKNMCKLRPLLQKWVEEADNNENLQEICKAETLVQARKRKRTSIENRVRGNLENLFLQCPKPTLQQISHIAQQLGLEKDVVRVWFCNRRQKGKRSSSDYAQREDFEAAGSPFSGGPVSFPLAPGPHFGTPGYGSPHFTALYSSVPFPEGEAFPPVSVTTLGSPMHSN
Sequence of YY1 N-terminal region (Q00899 1-277, one chain of several): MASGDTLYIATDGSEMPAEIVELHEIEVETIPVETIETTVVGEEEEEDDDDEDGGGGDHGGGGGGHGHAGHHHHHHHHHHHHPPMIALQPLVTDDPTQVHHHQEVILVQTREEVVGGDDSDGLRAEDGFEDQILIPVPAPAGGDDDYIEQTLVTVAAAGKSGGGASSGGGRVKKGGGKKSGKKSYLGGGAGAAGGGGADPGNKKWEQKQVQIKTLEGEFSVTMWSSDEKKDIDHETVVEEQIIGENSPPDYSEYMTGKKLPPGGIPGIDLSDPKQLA

B1: Arid1a promoter DNA with YY1 motif (dsDNA)
DNA 1: CTCTTCTCTCTTAAAATGGCTGCCTGTCTG
DNA 2: CAGACAGGCAGCCATTTTAAGAGAGAAGAG
B1: binds (YY1 (full length) [1]); binds [2].

B2: Arid1a promoter RNA B (ssRNA)
RNA: CCCGCCUCCCCAGGCCUACGCGCUGAGCUC
B2: no binding (YY1 (full length) [3]).

B3: Lefty1 enhancer DNA (dsDNA)
DNA 1: GGTGGGAGGGAGACTGCCCTTTGTCATGTAGAAGGAGCTT
DNA 2: AAGCTCCTTCTACATGACAAAGGGCAGTCTCCCTCCCACC
B3: binds (OCT4 [4]).

B4: Rpl30 promoter DNA with YY1 motif (dsDNA)
DNA 1: TCGCTCCCCGGCCATCTTGGCGGCTGGTGT
DNA 2: ACACCAGCCGCCAAGATGGCCGGGGAGCGA
B4: binds (YY1 (full length) [5]).

B5: Arid1a promoter RNA A (ssRNA)
RNA: CUCUUCUCUCUUAAAAUGGCUGCCUGUCUG
B5: binds (YY1 N-terminal region); no binding [6]; no binding (OCT4 [7]). B5: binds (YY1 (full length) [8]).

B6: Rpl30 DNA with tethered Arid1a RNA (mixed)
mixed 1: TCGCTCCCCGGCCATCTTGGCGGCTGGTGTCUCUUCUCUCUUAAAAUGGCUGCCUGUCUG
mixed 2: ACACCAGCCGCCAAGATGGCCGGGGAGCGACUCUUCUCUCUUAAAAUGGCUGCCUGUCUG
B6: binds (YY1 (full length) [9]).
